The values below come from patent publication US20060078537A1.

This test addresses human CCR5 (human) (UniProt P51681). The experiment in a line: cell-based or functional assay.

Chain of human CCR5 (human) (P51681 whole entry): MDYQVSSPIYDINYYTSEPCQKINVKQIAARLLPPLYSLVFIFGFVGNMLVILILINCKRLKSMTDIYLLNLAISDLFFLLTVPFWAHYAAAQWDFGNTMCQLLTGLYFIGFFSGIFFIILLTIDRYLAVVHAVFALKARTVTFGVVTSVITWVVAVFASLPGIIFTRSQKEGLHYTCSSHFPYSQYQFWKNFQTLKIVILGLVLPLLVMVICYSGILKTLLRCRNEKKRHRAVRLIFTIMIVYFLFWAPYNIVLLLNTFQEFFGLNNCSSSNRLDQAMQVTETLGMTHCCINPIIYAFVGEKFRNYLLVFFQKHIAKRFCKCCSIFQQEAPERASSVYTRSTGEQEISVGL

In turn, “AOP-RANTES (from UniProt P13501 24-91) (ligand)” yielded a CCR5 receptor downmodulation on CHO cells expressing CCR5 (FACS) at 1 nM AOP-RANTES of 50% and a CCR5 receptor downmodulation on CHO cells expressing CCR5 (FACS) at 100 nM AOP-RANTES of 90%.
